Consider 2 molecules from patent US20240174765A1 (ACADEMIA SINICA, published 2024).

The target of experiment [1] is T1, enolase 1 (ENO1), endogenous in CL1-5 human lung cancer cells (human, UniProt P06733 2-434).
T1 construct: whole, on cells; Used for ENO1 on the surface of live or fixed CL1-5 cells, and for endogenous ENO1 in CL1-5 membrane extracts and lysates (cross-link IP, co-IP); also called alpha-enolase; surface form ENO1
Put plainly: flow cytometry on live cells. For orientation: A flow cytometer gives signals particle by particle.

Experiment [2] deals with T1, enolase 1 (ENO1), endogenous in CL1-5 …. Nature of the experiment: flow cytometry on live CL1-5 cells.

T1 sequence (P06733 2-434): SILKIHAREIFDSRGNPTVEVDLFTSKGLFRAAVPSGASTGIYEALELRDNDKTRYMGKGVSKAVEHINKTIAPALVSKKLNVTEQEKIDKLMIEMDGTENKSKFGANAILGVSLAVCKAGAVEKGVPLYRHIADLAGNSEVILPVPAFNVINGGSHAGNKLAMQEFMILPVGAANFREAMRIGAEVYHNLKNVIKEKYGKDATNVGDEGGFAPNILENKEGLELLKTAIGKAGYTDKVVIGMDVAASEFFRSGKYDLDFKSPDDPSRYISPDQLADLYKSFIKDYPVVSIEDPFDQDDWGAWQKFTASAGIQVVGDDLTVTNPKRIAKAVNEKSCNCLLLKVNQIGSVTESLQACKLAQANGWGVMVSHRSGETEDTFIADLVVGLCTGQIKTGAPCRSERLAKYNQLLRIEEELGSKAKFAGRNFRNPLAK

B1: chimeric ENO1-22 (chENO1-22) (antibody, V domains shown)
VH: QVQLQQSGPEVVRPGVSVKISCKGSGYTFTDYAMHWVKQSHAKSLEWIGVISTYNGNTNYNQKFKGKATMTVDKSSSTAYMELARLTSEDSAIYYCARSPLRYWGQGTTLTVSS
VL: QIVLSQSPAILSASPGEKVTMTCRASSSVSYMHWYQQKPGSSPKPWIYATSNLASGVPARFSGSGSGTSYSLTISRVEAEDAATYYCQQWSSNPLTFGAGTKLELK
notes: Variable domain of anti-ENO1 mAb-22 cloned into a human IgG Fc vector; also called chimeric ENO1 mAb; chimeric ENO1 antibody
On to B1, for which the binding result in experiment [1] was “binds”.

B2: anti-ENO1 mAb-22 (antibody, V domains shown)
VH: B1 VH
VL: B1 VL
notes: Mouse hybridoma monoclonal antibody; also called ENO1-22; anti-ENO1 mAb-22 antibody
For the molecule B2, the binding result in experiment [2] was “binds”.
